Measurements taken from PMC3258846 (Molecular Cell, 2011).

Assays:
[1] = molecular target: GST-ASCC3-C (human, UniProt Q8N3C0 1301-2202); assay: pull-down
[2] = molecular target: GST-ASCC3-B (human, UniProt Q8N3C0 401-1300); assay: pull-down
Chain of GST-ASCC3-B (Q8N3C0 401-1300): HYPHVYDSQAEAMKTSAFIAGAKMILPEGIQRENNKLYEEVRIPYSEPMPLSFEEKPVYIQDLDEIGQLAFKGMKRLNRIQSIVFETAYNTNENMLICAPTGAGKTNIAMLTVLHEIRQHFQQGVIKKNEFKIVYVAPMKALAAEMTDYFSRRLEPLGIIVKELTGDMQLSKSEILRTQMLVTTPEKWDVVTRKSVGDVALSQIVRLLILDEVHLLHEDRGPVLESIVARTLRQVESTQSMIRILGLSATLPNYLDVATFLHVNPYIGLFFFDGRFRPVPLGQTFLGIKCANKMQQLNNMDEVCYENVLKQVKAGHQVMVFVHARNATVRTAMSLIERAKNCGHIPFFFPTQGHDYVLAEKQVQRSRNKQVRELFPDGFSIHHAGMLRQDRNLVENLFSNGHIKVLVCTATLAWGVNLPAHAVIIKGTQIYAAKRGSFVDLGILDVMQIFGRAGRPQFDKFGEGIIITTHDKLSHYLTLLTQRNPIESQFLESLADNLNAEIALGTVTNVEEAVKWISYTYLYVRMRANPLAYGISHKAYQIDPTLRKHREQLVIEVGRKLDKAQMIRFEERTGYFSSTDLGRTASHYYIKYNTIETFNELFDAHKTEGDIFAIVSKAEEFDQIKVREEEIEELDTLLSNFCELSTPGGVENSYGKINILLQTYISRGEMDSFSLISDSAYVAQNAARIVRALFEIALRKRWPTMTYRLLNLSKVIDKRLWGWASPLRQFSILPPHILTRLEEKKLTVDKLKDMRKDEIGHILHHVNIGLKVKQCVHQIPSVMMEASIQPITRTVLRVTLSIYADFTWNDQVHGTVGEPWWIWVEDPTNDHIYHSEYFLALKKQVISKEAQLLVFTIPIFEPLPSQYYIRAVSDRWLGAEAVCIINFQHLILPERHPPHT

Chain of GST-ASCC3-C (Q8N3C0 1301-2202): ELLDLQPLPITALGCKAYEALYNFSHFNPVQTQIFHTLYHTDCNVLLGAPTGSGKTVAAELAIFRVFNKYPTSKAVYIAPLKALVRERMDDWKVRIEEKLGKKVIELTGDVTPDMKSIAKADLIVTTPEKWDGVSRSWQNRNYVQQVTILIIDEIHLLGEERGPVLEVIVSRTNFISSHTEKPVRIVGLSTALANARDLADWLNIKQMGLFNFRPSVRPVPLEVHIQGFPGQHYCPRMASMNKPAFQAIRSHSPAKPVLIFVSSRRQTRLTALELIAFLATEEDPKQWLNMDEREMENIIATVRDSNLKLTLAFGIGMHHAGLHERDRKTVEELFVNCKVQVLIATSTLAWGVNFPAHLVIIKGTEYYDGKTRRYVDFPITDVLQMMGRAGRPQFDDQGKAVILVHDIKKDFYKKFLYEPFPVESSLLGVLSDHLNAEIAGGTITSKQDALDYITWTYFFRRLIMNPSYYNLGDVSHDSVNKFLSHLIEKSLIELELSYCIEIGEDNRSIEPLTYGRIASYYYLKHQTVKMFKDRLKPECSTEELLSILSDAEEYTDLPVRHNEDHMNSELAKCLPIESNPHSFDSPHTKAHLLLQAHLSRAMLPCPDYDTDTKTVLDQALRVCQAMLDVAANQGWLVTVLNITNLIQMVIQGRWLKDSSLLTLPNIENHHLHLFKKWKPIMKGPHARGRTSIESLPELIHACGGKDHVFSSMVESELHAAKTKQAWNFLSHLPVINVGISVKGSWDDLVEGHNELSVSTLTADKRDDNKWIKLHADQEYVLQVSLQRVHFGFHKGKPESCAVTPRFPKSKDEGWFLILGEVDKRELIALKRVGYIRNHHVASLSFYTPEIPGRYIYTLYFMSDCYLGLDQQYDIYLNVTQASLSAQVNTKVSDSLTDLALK

binding result [1]: binds
binding result [2]: binds
B1: His6-ALKBH3 (enzyme, human, UniProt Q96Q83 1-286, looked up)
chain: MEEKRRRARVQGAWAAPVKSQAIAQPATTAKSHLHQKPGQTWKNKEHHLSDREFVFKEPQQVVRRAPEPRVIDREGVYEISLSPTGVSRVCLYPGFVDVKEADWILEQLCQDVPWKQRTGIREDITYQQPRLTAWYGELPYTYSRITMEPNPHWHPVLRTLKNRIEENTGHTFNSLLCNLYRNEKDSVDWHSDDEPSLGRCPIIASLSFGATRTFEMRKKPPPEENGDYTYVERVKIPLDHGTLLIMEGATQADWQHRVPKEYHSREPRVNLTFRTVYPDPRGAPW
